# Data published in PMC4937337.
# System: nsp1β;PCBP2 (PRRSV (SD01-08)?;human)
# Assay: EMSA
# Settings: EMSA: 10 mM Hepes pH 7.6, 150 mM KCl, 2 mM MgCl2, 1 mM DTT, 0.5 mM ATP, 5% glycerol, 100 µg/ml porcine tRNA, RNase inhibitor; 10 nM RNA; 30°C 10 min (room …)
substance,measurement,value
PRRSV -2/-1 PRF RNA wt (58 nt),Kd,130 nM
